Here are results for 19 molecules from patent publication US20230365662A1.

The target of the test is HRgpA-6H (Porphyromonas gingivalis) (UniProt P28784). Kind of test: ELISA on coated HRgpA-6H.

Values joined by “and” are separate entries in the source; they are usually repeats but may differ in a detail not shown here. Equal values may be shown once.

Chain of UniProt P28784 (P28784 228-991 limits assumed): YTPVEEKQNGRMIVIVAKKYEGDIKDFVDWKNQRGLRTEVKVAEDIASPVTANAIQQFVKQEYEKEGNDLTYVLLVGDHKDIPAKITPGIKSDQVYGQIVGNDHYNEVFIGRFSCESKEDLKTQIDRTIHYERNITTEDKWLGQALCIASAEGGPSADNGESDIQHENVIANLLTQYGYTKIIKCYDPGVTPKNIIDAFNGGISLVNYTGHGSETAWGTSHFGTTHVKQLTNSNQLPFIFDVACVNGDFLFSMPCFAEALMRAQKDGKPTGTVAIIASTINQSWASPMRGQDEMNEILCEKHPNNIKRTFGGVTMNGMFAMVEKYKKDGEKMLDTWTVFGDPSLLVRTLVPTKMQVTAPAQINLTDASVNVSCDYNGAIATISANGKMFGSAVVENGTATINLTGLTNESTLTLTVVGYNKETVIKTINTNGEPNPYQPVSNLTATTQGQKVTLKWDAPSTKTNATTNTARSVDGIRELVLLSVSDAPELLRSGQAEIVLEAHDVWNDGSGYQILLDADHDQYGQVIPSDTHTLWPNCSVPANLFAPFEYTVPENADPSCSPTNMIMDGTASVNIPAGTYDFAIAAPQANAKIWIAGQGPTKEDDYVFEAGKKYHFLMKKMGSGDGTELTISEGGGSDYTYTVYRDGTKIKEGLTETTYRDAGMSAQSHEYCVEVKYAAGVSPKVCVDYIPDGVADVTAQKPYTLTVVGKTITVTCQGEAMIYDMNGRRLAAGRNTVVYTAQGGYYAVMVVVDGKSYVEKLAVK

B1: KB001 mouse Fab FASEBA VH S30H (Fab, V domains shown)
VH: EVQLKQSGPGLVAPSQSLSITCTVSGFSLHIYSVHWVRQPPGKGLEWLGMIWGGGSSDYNSALKSRLSISKDNSKSQVFLKMNSLQTDDTAMYYCARNGNFYAMDYWGQGTSVTVSS
VL: QIVLTQSPAIMSASLGERVTMTCTASSSVSSSFLHWYQQKPGSSPQLWIYSTSNLASGVPARFSGSGSGTSYSLTISSMEAEDAATYYCHQYHHSPYIYTFGGGTKLEIK
Take B1: the OD450nm is 0.482 and the Ratio OD(Variant)/OD(WT) was 0.955.

B2: KB001 mouse Fab FASEBA VH I31N (Fab, V domains shown)
VH: EVQLKQSGPGLVAPSQSLSITCTVSGFSLSNYSVHWVRQPPGKGLEWLGMIWGGGSSDYNSALKSRLSISKDNSKSQVFLKMNSLQTDDTAMYYCARNGNFYAMDYWGQGTSVTVSS
VL: QIVLTQSPAIMSASLGERVTMTCTASSSVSSSFLHWYQQKPGSSPQLWIYSTSNLASGVPARFSGSGSGTSYSLTISSMEAEDAATYYCHQYHHSPYIYTFGGGTKLEIK
Regarding B2, the OD450nm amounted to 0.429 and the Ratio OD(Variant)/OD(WT) was determined as 0.85.

B3: KB001 mouse Fab FASEBA VH I31W (Fab, V domains shown)
VH: EVQLKQSGPGLVAPSQSLSITCTVSGFSLSWYSVHWVRQPPGKGLEWLGMIWGGGSSDYNSALKSRLSISKDNSKSQVFLKMNSLQTDDTAMYYCARNGNFYAMDYWGQGTSVTVSS
VL: QIVLTQSPAIMSASLGERVTMTCTASSSVSSSFLHWYQQKPGSSPQLWIYSTSNLASGVPARFSGSGSGTSYSLTISSMEAEDAATYYCHQYHHSPYIYTFGGGTKLEIK
In the case of B3, the OD450nm was 0.459 and the Ratio OD(Variant)/OD(WT) was found to be 0.91.

B4: KB001 mouse Fab FASEBA VH I51Q/M92I (Fab, V domains shown)
VH: EVQLKQSGPGLVAPSQSLSITCTVSGFSLSIYSVHWVRQPPGKGLEWLGMQWGGGSSDYNSALKSRLSISKDNSKSQVFLKMNSLQTDDTAIYYCARNGNFYAMDYWGQGTSVTVSS
VL: QIVLTQSPAIMSASLGERVTMTCTASSSVSSSFLHWYQQKPGSSPQLWIYSTSNLASGVPARFSGSGSGTSYSLTISSMEAEDAATYYCHQYHHSPYIYTFGGGTKLEIK
As to B4, the OD450nm was 0.722 and the Ratio OD(Variant)/OD(WT) stood at 0.817.

B5: KB001 mouse Fab FASEBA VH G55D (Fab, V domains shown)
VH: EVQLKQSGPGLVAPSQSLSITCTVSGFSLSIYSVHWVRQPPGKGLEWLGMIWGGDSSDYNSALKSRLSISKDNSKSQVFLKMNSLQTDDTAMYYCARNGNFYAMDYWGQGTSVTVSS
VL: QIVLTQSPAIMSASLGERVTMTCTASSSVSSSFLHWYQQKPGSSPQLWIYSTSNLASGVPARFSGSGSGTSYSLTISSMEAEDAATYYCHQYHHSPYIYTFGGGTKLEIK
In the case of B5, the OD450nm was 0.697 and the Ratio OD(Variant)/OD(WT) was determined as 0.866.

B6: KB001 mouse Fab FASEBA VH I31Q (Fab, V domains shown)
VH: EVQLKQSGPGLVAPSQSLSITCTVSGFSLSQYSVHWVRQPPGKGLEWLGMIWGGGSSDYNSALKSRLSISKDNSKSQVFLKMNSLQTDDTAMYYCARNGNFYAMDYWGQGTSVTVSS
VL: QIVLTQSPAIMSASLGERVTMTCTASSSVSSSFLHWYQQKPGSSPQLWIYSTSNLASGVPARFSGSGSGTSYSLTISSMEAEDAATYYCHQYHHSPYIYTFGGGTKLEIK
For B6, the OD450nm is 0.44 and 0.439; the Ratio OD(Variant)/OD(WT) was 0.872 and 0.87.

B7: KB001 mouse Fab FASEBA VH I31P (Fab, V domains shown)
VH: EVQLKQSGPGLVAPSQSLSITCTVSGFSLSPYSVHWVRQPPGKGLEWLGMIWGGGSSDYNSALKSRLSISKDNSKSQVFLKMNSLQTDDTAMYYCARNGNFYAMDYWGQGTSVTVSS
VL: QIVLTQSPAIMSASLGERVTMTCTASSSVSSSFLHWYQQKPGSSPQLWIYSTSNLASGVPARFSGSGSGTSYSLTISSMEAEDAATYYCHQYHHSPYIYTFGGGTKLEIK
On to B7, for which the OD450nm was 0.471 and 0.428; the Ratio OD(Variant)/OD(WT) is 0.934 and 0.848.

B8: KB001 mouse Fab FASEBA VH Y32N (Fab, V domains shown)
VH: EVQLKQSGPGLVAPSQSLSITCTVSGFSLSINSVHWVRQPPGKGLEWLGMIWGGGSSDYNSALKSRLSISKDNSKSQVFLKMNSLQTDDTAMYYCARNGNFYAMDYWGQGTSVTVSS
VL: QIVLTQSPAIMSASLGERVTMTCTASSSVSSSFLHWYQQKPGSSPQLWIYSTSNLASGVPARFSGSGSGTSYSLTISSMEAEDAATYYCHQYHHSPYIYTFGGGTKLEIK
Turning to B8, the OD450nm is 0.826 and 0.775; the Ratio OD(Variant)/OD(WT) is 0.976 and 0.916.

B9: KB001 mouse Fab FASEBA VH Y32S (Fab, V domains shown)
VH: EVQLKQSGPGLVAPSQSLSITCTVSGFSLSISSVHWVRQPPGKGLEWLGMIWGGGSSDYNSALKSRLSISKDNSKSQVFLKMNSLQTDDTAMYYCARNGNFYAMDYWGQGTSVTVSS
VL: QIVLTQSPAIMSASLGERVTMTCTASSSVSSSFLHWYQQKPGSSPQLWIYSTSNLASGVPARFSGSGSGTSYSLTISSMEAEDAATYYCHQYHHSPYIYTFGGGTKLEIK
Turning to B9, the OD450nm was 0.717 and 0.783 and 0.718; the Ratio OD(Variant)/OD(WT) was 0.847 and 0.925 and 0.848.

B10: KB001 mouse Fab FASEBA VH G53P (Fab, V domains shown)
VH: EVQLKQSGPGLVAPSQSLSITCTVSGFSLSIYSVHWVRQPPGKGLEWLGMIWPGGSSDYNSALKSRLSISKDNSKSQVFLKMNSLQTDDTAMYYCARNGNFYAMDYWGQGTSVTVSS
VL: QIVLTQSPAIMSASLGERVTMTCTASSSVSSSFLHWYQQKPGSSPQLWIYSTSNLASGVPARFSGSGSGTSYSLTISSMEAEDAATYYCHQYHHSPYIYTFGGGTKLEIK
In the case of B10, the OD450nm was 0.754 and 0.716; the Ratio OD(Variant)/OD(WT) is 0.947 and 0.899.

B11: KB001 mouse Fab FASEBA VH Y32W (Fab, V domains shown)
VH: EVQLKQSGPGLVAPSQSLSITCTVSGFSLSIWSVHWVRQPPGKGLEWLGMIWGGGSSDYNSALKSRLSISKDNSKSQVFLKMNSLQTDDTAMYYCARNGNFYAMDYWGQGTSVTVSS
VL: QIVLTQSPAIMSASLGERVTMTCTASSSVSSSFLHWYQQKPGSSPQLWIYSTSNLASGVPARFSGSGSGTSYSLTISSMEAEDAATYYCHQYHHSPYIYTFGGGTKLEIK
Consider B11, for which the OD450nm is 0.731 and 0.718 and 0.747; the Ratio OD(Variant)/OD(WT) is 0.864 and 0.848 and 0.882.

B12: KB001 mouse Fab FASEBA VH G53S (Fab, V domains shown)
VH: EVQLKQSGPGLVAPSQSLSITCTVSGFSLSIYSVHWVRQPPGKGLEWLGMIWSGGSSDYNSALKSRLSISKDNSKSQVFLKMNSLQTDDTAMYYCARNGNFYAMDYWGQGTSVTVSS
VL: QIVLTQSPAIMSASLGERVTMTCTASSSVSSSFLHWYQQKPGSSPQLWIYSTSNLASGVPARFSGSGSGTSYSLTISSMEAEDAATYYCHQYHHSPYIYTFGGGTKLEIK
On to B12, for which the OD450nm is 0.686 and the Ratio OD(Variant)/OD(WT) is 0.861.

B13: KB001 mouse Fab FASEBA VH I31F (Fab, V domains shown)
VH: EVQLKQSGPGLVAPSQSLSITCTVSGFSLSFYSVHWVRQPPGKGLEWLGMIWGGGSSDYNSALKSRLSISKDNSKSQVFLKMNSLQTDDTAMYYCARNGNFYAMDYWGQGTSVTVSS
VL: QIVLTQSPAIMSASLGERVTMTCTASSSVSSSFLHWYQQKPGSSPQLWIYSTSNLASGVPARFSGSGSGTSYSLTISSMEAEDAATYYCHQYHHSPYIYTFGGGTKLEIK
B13: the OD450nm worked out at 0.45 and the Ratio OD(Variant)/OD(WT) worked out at 0.892.

B14: KB001 mouse Fab FASEBA VH I31E (Fab, V domains shown)
VH: EVQLKQSGPGLVAPSQSLSITCTVSGFSLSEYSVHWVRQPPGKGLEWLGMIWGGGSSDYNSALKSRLSISKDNSKSQVFLKMNSLQTDDTAMYYCARNGNFYAMDYWGQGTSVTVSS
VL: QIVLTQSPAIMSASLGERVTMTCTASSSVSSSFLHWYQQKPGSSPQLWIYSTSNLASGVPARFSGSGSGTSYSLTISSMEAEDAATYYCHQYHHSPYIYTFGGGTKLEIK
In the case of B14, the OD450nm was 0.42 and 0.458 and 0.428; the Ratio OD(Variant)/OD(WT) was 0.833 and 0.908 and 0.848.

B15: KB001 mouse Fab FASEBA VH I51V (Fab, V domains shown)
VH: EVQLKQSGPGLVAPSQSLSITCTVSGFSLSIYSVHWVRQPPGKGLEWLGMVWGGGSSDYNSALKSRLSISKDNSKSQVFLKMNSLQTDDTAMYYCARNGNFYAMDYWGQGTSVTVSS
VL: QIVLTQSPAIMSASLGERVTMTCTASSSVSSSFLHWYQQKPGSSPQLWIYSTSNLASGVPARFSGSGSGTSYSLTISSMEAEDAATYYCHQYHHSPYIYTFGGGTKLEIK
Regarding B15, the OD450nm was 0.798 and the Ratio OD(Variant)/OD(WT) worked out at 0.903.

B16: KB001 mouse Fab FASEBA VH H35V (Fab, V domains shown)
VH: EVQLKQSGPGLVAPSQSLSITCTVSGFSLSIYSVVWVRQPPGKGLEWLGMIWGGGSSDYNSALKSRLSISKDNSKSQVFLKMNSLQTDDTAMYYCARNGNFYAMDYWGQGTSVTVSS
VL: QIVLTQSPAIMSASLGERVTMTCTASSSVSSSFLHWYQQKPGSSPQLWIYSTSNLASGVPARFSGSGSGTSYSLTISSMEAEDAATYYCHQYHHSPYIYTFGGGTKLEIK
Regarding B16, the OD450nm came to 0.706 and the Ratio OD(Variant)/OD(WT) was 0.856.

B17: KB001 mouse Fab FASEBA VH Y32F (Fab, V domains shown)
VH: EVQLKQSGPGLVAPSQSLSITCTVSGFSLSIFSVHWVRQPPGKGLEWLGMIWGGGSSDYNSALKSRLSISKDNSKSQVFLKMNSLQTDDTAMYYCARNGNFYAMDYWGQGTSVTVSS
VL: QIVLTQSPAIMSASLGERVTMTCTASSSVSSSFLHWYQQKPGSSPQLWIYSTSNLASGVPARFSGSGSGTSYSLTISSMEAEDAATYYCHQYHHSPYIYTFGGGTKLEIK
Regarding B17, the OD450nm is 0.814 and 0.807; the Ratio OD(Variant)/OD(WT) is 0.962 and 0.953.

B18: KB001 mouse Fab FASEBA VH V34M (Fab, V domains shown)
VH: EVQLKQSGPGLVAPSQSLSITCTVSGFSLSIYSMHWVRQPPGKGLEWLGMIWGGGSSDYNSALKSRLSISKDNSKSQVFLKMNSLQTDDTAMYYCARNGNFYAMDYWGQGTSVTVSS
VL: QIVLTQSPAIMSASLGERVTMTCTASSSVSSSFLHWYQQKPGSSPQLWIYSTSNLASGVPARFSGSGSGTSYSLTISSMEAEDAATYYCHQYHHSPYIYTFGGGTKLEIK
As for B18, the OD450nm is 0.793 and 0.791; the Ratio OD(Variant)/OD(WT) is 0.962 and 0.959.

B19: KB001 mouse Fab FASEBA VH I31L (Fab, V domains shown)
VH: EVQLKQSGPGLVAPSQSLSITCTVSGFSLSLYSVHWVRQPPGKGLEWLGMIWGGGSSDYNSALKSRLSISKDNSKSQVFLKMNSLQTDDTAMYYCARNGNFYAMDYWGQGTSVTVSS
VL: QIVLTQSPAIMSASLGERVTMTCTASSSVSSSFLHWYQQKPGSSPQLWIYSTSNLASGVPARFSGSGSGTSYSLTISSMEAEDAATYYCHQYHHSPYIYTFGGGTKLEIK
On to B19, for which the OD450nm was 0.442 and 0.431; the Ratio OD(Variant)/OD(WT) is 0.876 and 0.854.
